Experiments:
Test in all cases: pull-down; 5 pmol P-Rex1 or P-Rex2 protein (2.5 pmol for P-Rex1 mutants) with 5 pmol GST or GST-Grk2 in 20 µl detergent-free buffer (50 mM Hepes pH 7.2, 150 mM NaCl), 1 h on ice; isolated on magnetic glutathione agarose; beads washed in buffer with 1% NP-40; western blot
Conditions in all cases: both partners purified
[1] = molecular target: T1, His-P-Rex2 (wild type) (human, UniProt Q70Z35 1-1606)
T1 construct: P-Rex2, human, wild type, subcloned into pENTR3C and recombined with pDEST10; also called wild type His-P-Rex2; source: baculovirus-infected Sf9 cells, purified (Ni-NTA agarose, desalting); not shown: His6, N-terminal, kept
T1 sequence (Q70Z35 whole entry): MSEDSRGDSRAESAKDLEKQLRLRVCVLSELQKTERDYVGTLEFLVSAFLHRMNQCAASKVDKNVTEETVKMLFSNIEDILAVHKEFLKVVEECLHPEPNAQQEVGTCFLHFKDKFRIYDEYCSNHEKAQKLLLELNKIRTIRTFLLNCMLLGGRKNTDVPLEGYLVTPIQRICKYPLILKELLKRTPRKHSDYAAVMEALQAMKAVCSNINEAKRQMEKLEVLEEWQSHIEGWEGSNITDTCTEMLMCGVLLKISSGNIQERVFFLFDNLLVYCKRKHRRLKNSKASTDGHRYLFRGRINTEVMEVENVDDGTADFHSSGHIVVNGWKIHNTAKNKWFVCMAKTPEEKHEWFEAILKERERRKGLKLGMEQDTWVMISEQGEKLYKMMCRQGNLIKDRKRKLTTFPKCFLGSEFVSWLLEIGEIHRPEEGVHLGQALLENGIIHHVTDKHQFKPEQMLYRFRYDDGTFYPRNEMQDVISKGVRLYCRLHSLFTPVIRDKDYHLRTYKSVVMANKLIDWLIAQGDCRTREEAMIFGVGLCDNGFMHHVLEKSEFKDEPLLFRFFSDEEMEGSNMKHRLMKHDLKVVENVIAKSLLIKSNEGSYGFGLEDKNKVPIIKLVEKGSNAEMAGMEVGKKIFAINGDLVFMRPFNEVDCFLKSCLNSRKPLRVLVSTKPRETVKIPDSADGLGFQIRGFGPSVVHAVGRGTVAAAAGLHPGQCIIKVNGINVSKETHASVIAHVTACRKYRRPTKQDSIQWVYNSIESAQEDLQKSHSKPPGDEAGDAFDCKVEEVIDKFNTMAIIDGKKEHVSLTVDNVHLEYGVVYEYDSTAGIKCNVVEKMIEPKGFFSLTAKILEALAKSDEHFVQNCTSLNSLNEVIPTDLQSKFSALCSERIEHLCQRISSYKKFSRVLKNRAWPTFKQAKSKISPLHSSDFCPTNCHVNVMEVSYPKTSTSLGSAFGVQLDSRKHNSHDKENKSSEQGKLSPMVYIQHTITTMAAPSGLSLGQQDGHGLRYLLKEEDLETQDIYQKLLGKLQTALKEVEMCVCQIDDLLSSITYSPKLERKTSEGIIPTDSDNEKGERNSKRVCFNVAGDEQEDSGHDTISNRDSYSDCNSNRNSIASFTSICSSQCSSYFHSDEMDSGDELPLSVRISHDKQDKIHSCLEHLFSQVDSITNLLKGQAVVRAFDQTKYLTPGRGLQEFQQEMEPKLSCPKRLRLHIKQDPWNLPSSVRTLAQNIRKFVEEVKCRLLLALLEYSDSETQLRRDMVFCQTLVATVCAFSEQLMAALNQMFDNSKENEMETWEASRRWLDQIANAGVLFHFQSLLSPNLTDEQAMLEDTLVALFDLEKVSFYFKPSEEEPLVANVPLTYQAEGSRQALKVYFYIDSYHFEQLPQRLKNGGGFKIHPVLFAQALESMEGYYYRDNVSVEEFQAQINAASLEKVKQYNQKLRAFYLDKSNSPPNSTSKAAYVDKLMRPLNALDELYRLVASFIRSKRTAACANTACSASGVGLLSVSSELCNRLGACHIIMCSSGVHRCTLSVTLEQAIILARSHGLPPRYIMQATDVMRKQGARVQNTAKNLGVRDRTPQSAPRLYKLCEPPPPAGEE

[2] = molecular target: T2, GEF-dead EE-P-Rex1 (human, UniProt Q8TCU6 1-1659, E56A | N238A)
T2 construct: P-Rex1, human, with point mutations E56A and N238A in the DH domain; also called GEF-dead P-Rex1; P-Rex1 E56A N238A; source: baculovirus-infected Sf9 cells, purified using the EE tag
T2 sequence (Q8TCU6 whole entry E56A/N238A, the tested form may be a part): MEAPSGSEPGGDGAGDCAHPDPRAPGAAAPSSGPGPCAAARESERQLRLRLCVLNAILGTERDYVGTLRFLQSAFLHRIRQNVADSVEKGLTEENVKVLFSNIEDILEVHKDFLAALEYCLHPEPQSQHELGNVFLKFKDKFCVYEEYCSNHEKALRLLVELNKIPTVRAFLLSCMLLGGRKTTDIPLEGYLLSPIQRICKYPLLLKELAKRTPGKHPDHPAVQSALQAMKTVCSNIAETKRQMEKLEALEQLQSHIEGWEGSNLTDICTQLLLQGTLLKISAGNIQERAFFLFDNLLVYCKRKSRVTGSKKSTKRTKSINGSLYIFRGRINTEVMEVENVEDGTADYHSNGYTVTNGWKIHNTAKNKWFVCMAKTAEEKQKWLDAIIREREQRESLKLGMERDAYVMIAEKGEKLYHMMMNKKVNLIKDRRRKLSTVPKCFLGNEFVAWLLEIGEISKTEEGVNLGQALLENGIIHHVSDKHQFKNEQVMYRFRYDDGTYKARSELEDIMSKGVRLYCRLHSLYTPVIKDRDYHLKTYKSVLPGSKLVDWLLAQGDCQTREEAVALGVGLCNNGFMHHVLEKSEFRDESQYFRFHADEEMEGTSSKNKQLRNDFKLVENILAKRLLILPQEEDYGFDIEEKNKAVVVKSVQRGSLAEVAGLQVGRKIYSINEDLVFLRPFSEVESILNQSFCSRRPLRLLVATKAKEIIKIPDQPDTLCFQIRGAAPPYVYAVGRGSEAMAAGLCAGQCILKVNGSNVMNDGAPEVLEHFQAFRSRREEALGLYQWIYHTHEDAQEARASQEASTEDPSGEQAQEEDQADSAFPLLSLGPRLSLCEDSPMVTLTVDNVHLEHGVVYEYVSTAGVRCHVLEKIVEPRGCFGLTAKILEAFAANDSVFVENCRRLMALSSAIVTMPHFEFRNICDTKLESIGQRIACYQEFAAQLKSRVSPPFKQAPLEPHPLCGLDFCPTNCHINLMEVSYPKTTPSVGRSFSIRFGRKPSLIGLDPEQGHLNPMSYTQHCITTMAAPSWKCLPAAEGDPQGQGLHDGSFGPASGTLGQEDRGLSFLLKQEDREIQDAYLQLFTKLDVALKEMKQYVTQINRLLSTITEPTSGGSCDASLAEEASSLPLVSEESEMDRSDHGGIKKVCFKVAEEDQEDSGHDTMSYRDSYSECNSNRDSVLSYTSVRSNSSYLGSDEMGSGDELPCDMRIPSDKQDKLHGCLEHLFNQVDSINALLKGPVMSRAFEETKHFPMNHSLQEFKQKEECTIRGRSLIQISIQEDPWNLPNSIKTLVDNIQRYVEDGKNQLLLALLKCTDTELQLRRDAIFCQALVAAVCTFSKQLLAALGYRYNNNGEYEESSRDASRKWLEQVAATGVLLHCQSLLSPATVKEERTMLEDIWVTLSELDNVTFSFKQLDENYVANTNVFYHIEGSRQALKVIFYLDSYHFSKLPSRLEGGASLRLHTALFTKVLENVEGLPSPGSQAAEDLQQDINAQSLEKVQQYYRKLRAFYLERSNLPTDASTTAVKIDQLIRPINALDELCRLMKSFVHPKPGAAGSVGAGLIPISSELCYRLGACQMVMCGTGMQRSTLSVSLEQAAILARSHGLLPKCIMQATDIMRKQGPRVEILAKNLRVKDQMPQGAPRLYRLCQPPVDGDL

[3] = molecular target: T3, EE-P-Rex1 (purified recombinant wild type) (human, UniProt Q8TCU6 1-1659)
T3 construct: P-Rex1, human, wild type recombinant protein; also called wild type EE-P-Rex1; source: baculovirus-infected Sf9 cells, purified using the EE tag
T3 sequence (Q8TCU6 whole entry): as the sequence (Q8TCU6 whole entry E56A/N238A, the tested form may be a part) above, with A56E, A238N counted along it

[4] = molecular target: T4, GEF-dead His-P-Rex2 (P-Rex2^E30A,N212A) (human, UniProt Q70Z35 1-1606, E30A | N212A)
T4 construct: P-Rex2, human, with alanine mutations at Glu30 and Asn212 in the catalytic DH domain; also called GEF-dead P-Rex2; source: baculovirus-infected Sf9 cells, purified (Ni-NTA agarose, desalting); not shown: His6, N-terminal, kept
T4 sequence (Q70Z35 whole entry E30A/N212A, the tested form may be a part): as the sequence (Q70Z35 whole entry) above, with E30A, N212A counted along it

- binding result [1]: binds
- binding result [2]: binds
- binding result [3]: binds
- binding result [4]: binds
B1: GST-Grk2 (enzyme, human, UniProt P25098 1-689, looked up)
chain: MADLEAVLADVSYLMAMEKSKATPAARASKKILLPEPSIRSVMQKYLEDRGEVTFEKIFSQKLGYLLFRDFCLNHLEEARPLVEFYEEIKKYEKLETEEERVARSREIFDSYIMKELLACSHPFSKSATEHVQGHLGKKQVPPDLFQPYIEEICQNLRGDVFQKFIESDKFTRFCQWKNVELNIHLTMNDFSVHRIIGRGGFGEVYGCRKADTGKMYAMKCLDKKRIKMKQGETLALNERIMLSLVSTGDCPFIVCMSYAFHTPDKLSFILDLMNGGDLHYHLSQHGVFSEADMRFYAAEIILGLEHMHNRFVVYRDLKPANILLDEHGHVRISDLGLACDFSKKKPHASVGTHGYMAPEVLQKGVAYDSSADWFSLGCMLFKLLRGHSPFRQHKTKDKHEIDRMTLTMAVELPDSFSPELRSLLEGLLQRDVNRRLGCLGRGAQEVKESPFFRSLDWQMVFLQKYPPPLIPPRGEVNAADAFDIGSFDEEDTKGIKLLDSDQELYRNFPLTISERWQQEVAETVFDTINAETDRLEARKKAKNKQLGHEEDYALGKDCIMHGYMSKMGNPFLTQWQRRYFYLFPNRLEWRGEGEAPQSLLTMEEIQSVEETQIKERKCLLLKIRGGKQFILQCDSDPELVQWKKELRDAYREAQQLVQRVPKMKNKPRSPVVELSKVPLVQRGSANGL
notes: G protein-coupled receptor kinase 2 (Grk2), human, recombinant; also called recombinant human GST-Grk2; source: bought: Abcam (ab125620), Sf9 cell-derived recombinant

Source: paper doi:10.1101/2025.04.14.648762, “P-Rex1 Limits the Agonist-Induced Internalisation of GPCRs Independently of its Rac-GEF Activity” (bioRxiv, 2025)
